{
  "source": "patent US9814672B2",
  "about": "“Echogenic vehicle for clinical delivery of plasminogen activator and other fibrin-binding therapeutics to thrombi” (priority 2007, dated 2017)",
  "biological_target": "T1, fibrin (Homo sapiens, UniProt P02671+P02675+P02679)",
  "T1 construct": "purchased Calbiochem (EMD Biosciences, Inc., La Jolla, Calif.)",
  "T1 sequence (P02671 36-629 limits assumed)": "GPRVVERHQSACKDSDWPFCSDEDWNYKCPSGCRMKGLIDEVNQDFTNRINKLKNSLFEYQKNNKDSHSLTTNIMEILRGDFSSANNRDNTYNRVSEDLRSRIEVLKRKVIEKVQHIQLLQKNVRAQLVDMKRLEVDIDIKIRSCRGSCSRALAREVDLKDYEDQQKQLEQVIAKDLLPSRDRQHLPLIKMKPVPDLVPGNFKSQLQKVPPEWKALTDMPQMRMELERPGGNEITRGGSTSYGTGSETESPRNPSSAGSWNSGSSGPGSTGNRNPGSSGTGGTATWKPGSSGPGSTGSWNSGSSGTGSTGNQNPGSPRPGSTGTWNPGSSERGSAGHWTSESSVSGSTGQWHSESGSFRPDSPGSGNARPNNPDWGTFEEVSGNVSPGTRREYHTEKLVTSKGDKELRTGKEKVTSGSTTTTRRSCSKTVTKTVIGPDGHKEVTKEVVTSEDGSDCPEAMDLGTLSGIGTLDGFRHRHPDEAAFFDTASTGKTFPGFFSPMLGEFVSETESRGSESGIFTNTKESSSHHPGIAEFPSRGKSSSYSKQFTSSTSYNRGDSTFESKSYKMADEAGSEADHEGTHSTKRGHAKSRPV",
  "T1 sequence (P02675 45-491 limits assumed)": "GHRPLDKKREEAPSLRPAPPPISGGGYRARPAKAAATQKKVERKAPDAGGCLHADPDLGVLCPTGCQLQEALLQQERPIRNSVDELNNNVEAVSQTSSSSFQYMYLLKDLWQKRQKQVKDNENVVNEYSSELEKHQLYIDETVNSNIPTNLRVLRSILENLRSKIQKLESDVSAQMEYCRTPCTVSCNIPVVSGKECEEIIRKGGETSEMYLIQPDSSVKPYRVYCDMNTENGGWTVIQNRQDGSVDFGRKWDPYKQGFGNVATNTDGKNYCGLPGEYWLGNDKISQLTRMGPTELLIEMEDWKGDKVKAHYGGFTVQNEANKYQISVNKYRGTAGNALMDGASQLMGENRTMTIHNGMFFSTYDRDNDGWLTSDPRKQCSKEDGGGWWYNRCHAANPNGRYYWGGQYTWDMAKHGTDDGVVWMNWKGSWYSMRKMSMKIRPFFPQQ",
  "T1 sequence (P02679 27-437 isoform P02679-2 limits assumed)": "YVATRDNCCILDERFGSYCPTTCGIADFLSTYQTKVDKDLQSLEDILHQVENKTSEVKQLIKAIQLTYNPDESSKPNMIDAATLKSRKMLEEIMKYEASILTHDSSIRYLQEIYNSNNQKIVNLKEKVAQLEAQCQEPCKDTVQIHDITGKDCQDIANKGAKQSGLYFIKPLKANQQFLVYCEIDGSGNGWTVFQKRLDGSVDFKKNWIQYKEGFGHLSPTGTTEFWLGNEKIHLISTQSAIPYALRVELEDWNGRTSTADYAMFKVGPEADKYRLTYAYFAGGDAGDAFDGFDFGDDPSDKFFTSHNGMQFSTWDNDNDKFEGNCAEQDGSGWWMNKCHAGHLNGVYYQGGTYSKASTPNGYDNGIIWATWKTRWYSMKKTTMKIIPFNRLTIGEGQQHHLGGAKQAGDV",
  "assay": "Two-stage fibrin pad ELISA, Scatchard and van't Hoff analysis",
  "assay_type": "binding",
  "conditions": "for ΔH°: van't Hoff plot",
  "experimental": "Added 100 μl 0.2% BSA/PBS to each well and incubated at 37° C. for 1 hour. All subsequent incubations were also at 37° C. Aspirated the wells and washed the plate 3× with PBS-T. Added Activase dilutions (10, 5, 2.5, 1.25, and 0.625 μg/ml PBS-T) to replicate wells ([…]). Incubated for 2 hours. Removed the contents of each well and pooled all samples within each dilution. Stored pooled samples at 4° C. For tPA-ELIP dilutions (in PBS), the third wash before adding the samples was with PBS. Stored the pooled tPA-ELIP samples in polypropylene tubes.\nAdded monoclonal anti-tPA capture antibody (Ab) (5 μg/ml coating buffer; […]) to rows B, C, E and G of a fresh microplate. Incubated in a humidified chamber at 4° C. overnight. All subsequent incubations were in humidified chambers at 37° C. at volumes of 50 μl/well, followed by aspiration of wells and 3× washes with PBS-T. Blocked all rows with conjugate buffer for 1 hour. Added tPA standards (50, 25, 12.5, 6.25 and 3.13 ng/ml) and pooled sample dilutions (in PBS-T) in duplicate to sample (B, C, E, G) and background (A, D, F, H) wells. Incubated for 2 hours. Added secondary detection Ab (10 μg sheep anti-tPA/ml 0.1% BSA in PBS-T) to all wells and incubated 1 hour, followed by a conjugate incubation (3,000× diluted with conjugate buffer; 1 hour). Added 50 μl of substrate buffer+500 of substrate (1 tablet/5 ml substrate buffer) to each well. Incubated at 37° for 15 minutes. Immediately quenched with 5 μl of 1M sodium hydroxide/well. Read the plate at 405 nm. Determined net absorbance (A405) by subtracting background OD from sample OD (e.g., B4-A4 or E7-F7).\nCalculated the undiluted tPA concentrations of each pooled sample from the standard curve. These represented the free fractions ([F]) of the sample dilutions after equilibrium incubation with fibrin. Obtained the bound concentrations ([B]) by subtracting the free values from the total tPA concentration of the starting dilutions. Prepared Scatchard plots by plotting [B] (x-axis) vs. B/F (y-axis). The slope=−Kassoc and the y-intercept=Kassoc[n], where [n] was the concentration of exposed tPA binding sites on the fibrin pads.\nDilutions of untreated, sham-treated (control) and PPACK-treated (tPA(P)) tPA, as well as tPA(P) conjugated to ELIP (tPA(P)-ELIP), were incubated on replicate fibrin pads, prepared in microplate wells according to a modification of the method of Edgell et al. (1996). Human thrombin was added to a solution of 0.5 mg/ml of human fibrinogen in 0.02M phosphate-buffered saline, pH 7.4 (PBS), to a final concentration of 0.125 IU thrombin/ml; 100 μl of this solution was immediately added to each well and incubated at 37° C. for 45 minutes, followed by overnight drying of the plate at 45° C. After incubation with 100 μl/well of 0.2% BSA in PBS for 1 hour, samples (100 μl/well) were incubated for 2 hours at 37° C. For thermodynamic analyses, this incubation was performed at three temperatures (5, 24 and 37° C.). In order to determine the concentration of free tPA remaining in solution after incubation of tPA with fibrin, from which the concentration of bound tPA could be calculated for Scatchard analysis, the contents of duplicate wells were recovered, pooled and subsequently assayed for immunoreactive tPA in a standard quantitative sandwich ELISA.\nBriefly, Nunc MaxiSorp microtiter plates were coated with 5 μg/ml of a monoclonal anti-tPA capture antibody (Ab) in 0.05M sodium bicarbonate, pH 9.6, overnight at 4° C. All incubation volumes were 50 μl/well. One-half of wells were left uncoated for determination of nonspecific binding. After aspirating well contents, all wells were blocked with conjugate buffer (1% BSA in 0.05M Tris buffer, pH 8.0, with 0.02% sodium azide) for 1 hour. From this point, all incubations were at 37° C. Each incubation was followed by aspiration of well contents and washes (3×) with PBS-T (PBS with 0.05% Tween 20). […]",
  "note": "Like-named read-outs stand apart in the source and are kept apart here.",
  "data": [
    {"substance": "tPA(P): Human recombinant tPA (Activase®) irreversibly inhibited with D-phe-L-pro-L-arg-chloromethyl ketone (PPACK)", "values": [
      {"measurement": "ΔS°", "setting": "High affinity", "result": "−33.8", "unit": "cal/mole°"},
      {"measurement": "Kassoc", "setting": "High affinity, 278 K", "result": "4.67e+09", "unit": "M⁻¹"},
      {"measurement": "ΔG°", "setting": "High affinity, 278 K", "result": -12.3, "unit": "kcal/mol"},
      {"measurement": "Kassoc", "setting": "High affinity, 297 K", "result": "5.04e+08", "unit": "M⁻¹"},
      {"measurement": "ΔG°", "setting": "High affinity, 297 K", "result": -11.8, "unit": "kcal/mol"},
      {"measurement": "Kassoc", "setting": "High affinity, 310 K", "result": "7.65e+07", "unit": "M⁻¹"},
      {"measurement": "ΔG°", "setting": "High affinity, 310 K", "result": -11.2, "unit": "kcal/mol"},
      {"measurement": "ΔH°", "setting": "High affinity", "result": -21.7, "unit": "kcal/mol"},
      {"measurement": "ΔS°", "setting": "Low affinity", "result": "−9.93", "unit": "cal/mole°"},
      {"measurement": "Kassoc", "setting": "Low affinity, 278 K", "result": "5.33e+08", "unit": "M⁻¹"},
      {"measurement": "ΔG°", "setting": "Low affinity, 278 K", "result": -11.1, "unit": "kcal/mol"},
      {"measurement": "Kassoc", "setting": "Low affinity, 297 K", "result": "1.2e+08", "unit": "M⁻¹"},
      {"measurement": "ΔG°", "setting": "Low affinity, 297 K", "result": -11.0, "unit": "kcal/mol"},
      {"measurement": "Kassoc", "setting": "Low affinity, 310 K", "result": "3.91e+07", "unit": "M⁻¹"},
      {"measurement": "ΔG°", "setting": "Low affinity, 310 K", "result": -10.8, "unit": "kcal/mol"},
      {"measurement": "ΔH°", "setting": "Low affinity", "result": -13.9, "unit": "kcal/mol"},
      {"measurement": "Kd", "setting": "S.E., n=3, read-out: High-Affinity KD @ 37° C.", "result": "10.4 ± 1.4", "unit": "nM"},
      {"measurement": "Kd", "setting": "abstract of Example 15, read-out: fibrin-binding KD, higher affinity, after PPACK inactivation", "result": "~2", "unit": "nM"},
      {"measurement": "Kd", "setting": "abstract of Example 15, read-out: fibrin-binding KD, lower affinity, after PPACK inactivation", "result": 33, "unit": "nM"}
    ]},
    {"substance": "tPA: Recombinant tissue-plasminogen activator (Activase®, Genentech Inc.), used as the thrombolytic agent [reference compound]", "values": [
      {"measurement": "other fibrin-binding affinity in the presence of 50 mM EACA", "setting": "50 mM EACA", "result": "non-measurable level"},
      {"measurement": "Kd", "setting": "50 mM EACA, read-out: remaining fibrin-binding affinity in the presence of 50 mM EACA", "result": 32.9, "unit": "nM"},
      {"measurement": "Kd", "setting": "37° C., SE, n=3, read-out: High-affinity interaction dissociation constant (KD)", "result": "5.81 ± 4.04", "unit": "nM"},
      {"measurement": "Kd", "setting": "37° C., read-out: Low-affinity interaction KD", "result": "30.4 ± 14.7", "unit": "nM"},
      {"measurement": "Kassoc 1", "setting": "Example 12, 37° C.", "result": "3.13e+08", "unit": "M⁻¹"},
      {"measurement": "Kassoc 2", "setting": "Example 12, 37° C.", "result": "3.53e+07", "unit": "M⁻¹"},
      {"measurement": "Kd", "setting": "Example 12, 37° C., PBS-T, read-out: higher affinity on Scatchard plot", "result": 3.19, "unit": "nM"},
      {"measurement": "Kd", "setting": "Example 12, 37° C., PBS-T, read-out: lower affinity on Scatchard plot", "result": 28.3, "unit": "nM"},
      {"measurement": "High affinity (Scatchard plot)", "setting": "representative plot, PBS-T, 37° C., r=0.883", "result": "2e+09", "unit": "M⁻¹"},
      {"measurement": "low affinity (Scatchard plot)", "setting": "representative plot, PBS-T, 37° C., r=0.904", "result": "1.95e+08", "unit": "M⁻¹"}
    ]}
  ]
}
